Data on two molecules can be found in publication PMC6713228 (2018).

One experiment addresses CD20 (Homo sapiens) (UniProt P11836). The conditions noted are these: cited from earlier work.
A further experiment has as its target T1, CD20 (Homo sapiens, UniProt P11836).
T1 chain: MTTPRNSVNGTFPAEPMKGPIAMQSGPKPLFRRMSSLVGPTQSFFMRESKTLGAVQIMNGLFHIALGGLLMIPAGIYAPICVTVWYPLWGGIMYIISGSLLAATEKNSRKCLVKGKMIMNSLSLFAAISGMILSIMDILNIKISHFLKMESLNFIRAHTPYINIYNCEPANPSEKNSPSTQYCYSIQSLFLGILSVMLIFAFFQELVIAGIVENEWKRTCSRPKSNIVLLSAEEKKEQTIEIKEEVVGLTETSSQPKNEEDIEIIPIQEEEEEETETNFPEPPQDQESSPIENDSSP

A word on the Kd: it is the concentration at which binding is half-saturated.

Regarding rituximab, the dissociation constant (Kd) with CD20 (Homo sapiens) was 4.96 nM.

B1: rituximab (antibody, V domains shown)
VH: QVQLQQPGAELVKPGASVKMSCKASGYTFTSYNMHWVKQTPGRGLEWIGAIYPGNGDTSYNQKFKGKATLTADKSSSTAYMQLSSLTSEDSAVYYCARSTYYGGDWYFNVWGAGTTVTVSA
VL: QIVLSQSPAILSASPGEKVTMTCRASSSVSYIHWFQQKPGSSPKPWIYATSNLASGVPVRFSGSGSGTSYSLTISRVEAEDAATYYCQQWTSNPPTFGGGTKLEIK
modifications: FITC-labeled rituximab
In the experiment with CD20, B1 came in with an equilibrium dissociation constant (Kd) of 4.82 nM.
